Test results from patent US20120121706A1 (TUFTS MEDICAL CENTER, published 2012).
Each block holds one molecule with its values, some of them ahead of it.

B1: proMMP-1 (platelet-associated zymogen of MMP-1) (enzyme, human, UniProt P03956 20-469, looked up)
chain: FPATLETQEQDVDLVQKYLEKYYNLKNDGRQVEKRRNSGPVVEKLKQMQEFFGLKVTGKPDAETLKVMKQPRCGVPDVAQFVLTEGNPRWEQTHLTYRIENYTPDLPRADVDHAIEKAFQLWSNVTPLTFTKVSEGQADIMISFVRGDHRDNSPFDGPGGNLAHAFQPGPGIGGDAHFDEDERWTNNFREYNLHRVAAHELGHSLGLSHSTDIGALMYPSYTFSGDVQLAQDDIDGIQAIYGRSQNPVQPIGPQTPKACDSKLTFDAITTIRGEVMFFKDRFYMRTNPFYPEVELNFISVFWPQLPNGLEAAYEFADRDEVRFFKGNKYWAVQGQNVLHGYPKDIYSSFGFPRTVKHIDAALSEENTGKTYFFVANKYWRYDEYKRSMDPGYPKMIAHDFPGIGHKVDAVFMKDGFFYFFHGTRQYKFDPKTKRILTLQKANSWFNCRKN
notes: Endogenous protein co-immunoprecipitated from platelet lysates; detected by Western with AB8105 or AB806; also called MMP-1 (predominantly in the pro form)
B2: GPVI of human platelets (receptor, UniProt Q9HCN6 21-339, looked up)
chain: QSGPLPKPSLQALPSSLVPLEKPVTLRCQGPPGVDLYRLEKLSSSRYQDQAVLFIPAMKRSLAGRYRCSYQNGSLWSLPSDQLELVATGVFAKPSLSAQPGPAVSSGGDVTLQCQTRYGFDQFALYKEGDPAPYKNPERWYRASFPIITVTAAHSGTYRCYSFSSRDPYLWSAPSDPLELVVTGTSVTPSRLPTEPPSPVAEFSEATAELTVSFTNEVFTTETSRSITASPKESDSPAGPARQYYTKGNLVRICLGAVILIILAGFLAEDWHSRRKRLRHRGRAVQRPLPPLPPLPLTRKSNGGQDGGRQDVHSRGLCS
notes: also called GPVI collagen receptor

Legend:
[1] = target: PAR1 (protease-activated receptor-1) on human platelets (human) (UniProt P25116); assay: cell-based or functional assay
Chain of PAR1 (protease-activated receptor-1) on human platelets (human) (P25116 42-425): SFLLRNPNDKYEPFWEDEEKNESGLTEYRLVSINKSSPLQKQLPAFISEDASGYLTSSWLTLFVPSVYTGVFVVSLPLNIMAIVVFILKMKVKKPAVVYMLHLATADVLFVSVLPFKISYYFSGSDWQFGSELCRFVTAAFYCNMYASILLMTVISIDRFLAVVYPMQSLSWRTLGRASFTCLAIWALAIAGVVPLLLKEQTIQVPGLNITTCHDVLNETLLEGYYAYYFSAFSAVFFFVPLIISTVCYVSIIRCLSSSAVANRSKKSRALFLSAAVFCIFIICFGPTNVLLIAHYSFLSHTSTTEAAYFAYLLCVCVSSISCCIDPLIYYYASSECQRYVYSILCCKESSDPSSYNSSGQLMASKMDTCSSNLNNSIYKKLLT

[2] = target: PAR4 thrombin receptor on human platelets (human) (UniProt Q96RI0); assay: cell-based or functional assay
Chain of PAR4 thrombin receptor on human platelets (human) (Q96RI0 48-385): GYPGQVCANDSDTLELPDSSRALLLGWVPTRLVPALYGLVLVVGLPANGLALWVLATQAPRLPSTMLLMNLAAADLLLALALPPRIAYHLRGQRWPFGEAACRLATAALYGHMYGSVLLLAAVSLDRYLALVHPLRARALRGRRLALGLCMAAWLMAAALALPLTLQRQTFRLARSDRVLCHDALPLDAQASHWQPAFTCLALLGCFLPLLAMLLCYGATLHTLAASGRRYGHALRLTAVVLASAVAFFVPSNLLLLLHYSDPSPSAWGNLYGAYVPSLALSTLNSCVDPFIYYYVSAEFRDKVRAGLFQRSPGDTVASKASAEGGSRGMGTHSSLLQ

GPIbα of human platelets = GPIbα of human platelets (human, UniProt P07359 17-652); assay: co-immunoprecipitation from resting human platelet lysates (anti-GPIBα MM2/174), Western for MMP-1
Experimental: (§1) One candidate binding site(s) for the platelet-associated proMMP-1 is the α₂β₁ collagen receptor. To determine if proMMP-1 associates with integrins in resting human platelets, lysates from gel-filtered platelets were incubated with 4-5 μg/ml anti-α₂ (Gi9 or AK7), β₁ (MAB1987), β₃ (MAB1957), GPVI (SC20149), GPIBα (MM2/174) or mouse IgG control for 2-4 h at 4° C. Protein G sepharose was added and incubated for an additional 1 h. Beads were collected and washed 4× in lysis buffer supplemented with 200 mM NaCl.

[3] = target: B1; assay: co-immunoprecipitation from resting human platelet lysates (anti-GPVI SC20149), Western for MMP-1
Experimental: as §1

decrease in growth rate and size of platelet aggregate strings on collagen under arterial flow, 3 µM [1]: 75%
Molecule: P1pal-12 (PAR1 pepducin lipopeptide)

collagen-induced platelet aggregation, 3 µM pepducin [2]: 10%
Molecule: P4pal-10 (PAR4 pepducin lipopeptide)

Molecule: B1
binding result (GPIbα of human platelets): no binding

Molecule: B2
binding result [3]: no binding
